This note sets out measurements from the Human Domainome abundance scans (Beltran et al. 2025).

± gives the uncertainty stated by the source.

B1: POU domain, class 2, transcription factor 3, residues 186 to 260; numbered along this chain, Q9UKI9 (parent)
chain: SDLEELEKFAKTFKQRRIKLGFTQGDVGLAMGKLYGNDFSQTTISRFEALNLSFKNMCKLKPLLEKWLNDAESSP

In this data set the parent is B1. Description: abundance fitness (aPCA) (normalised: wild type 0, dead -1); higher = more abundant; growth selection in yeast, the domain comes from the species named. The settings on record: Homo sapiens.
With SDLEELEKFAKTFKQRRIKLGFTQGDVGLAMGKLYGNDFSQTTISRFEALNLSFKNMCKIKPLLEKWLNDAESSP, the abundance fitness was -0.067 ± 0.059. To SDLEELEKFAKTFKQRRIKLGFTQGDVGLAMGKLYGNDFSQTTISRFEALNLSFKNMCKNKPLLEKWLNDAESSP belongs -0.395 ± 0.068. Regarding SDLEELEKFAKTFKQRRIKLGFTQGDVGLAMGKLYGNDFSQTTISRFEALNLSFKNMCKQKPLLEKWLNDAESSP, the abundance fitness was -0.242 ± 0.057. Regarding SDLEELEKFAKTFKQRRIKLGFTQGDVGLAMGKLYGNDFSQTTISRFEALNLSFKNMCKRKPLLEKWLNDAESSP, the abundance fitness is -0.519 ± 0.04.

With SDLEELEKFAKTFKQRRIKLGFTQGDVGLAMGKLYGNDFSQTTISRFEALNLSFKNMCKVKPLLEKWLNDAESSP, the abundance fitness is -0.02 ± 0.032. As to SDLEELEKFAKTFKQRRIKLGFTQGDVGLAMGKLYGNDFSQTTISRFEALNLSFKNMCKLKPGLEKWLNDAESSP, the abundance fitness is -0.06 ± 0.03. Turning to SDLEELEKFAKTFKQRRIKLGFTQGDVGLAMGKLYGNDFSQTTISRFEALNLSFKNMCKLKPELEKWLNDAESSP, the abundance fitness is -0.127 ± 0.039. To SDLEELEKFAKTFKQRRIKLGFTQGDVGLAMGKLYGNDFSQTTISRFEALNLSFKNMCKLKPRLEKWLNDAESSP belongs -0.022 ± 0.03; to SDLEELEKFAKTFKQRRIKLGFTQGDVGLAMGKLYGNDFSQTTISRFEALNLSFKNMCKLKPILEKWLNDAESSP, 0.072 ± 0.061; to SDLEELEKFAKTFKQRRIKLGFTQGDVGLAMGKLYGNDFSQTTISRFEALNLSFKNMCKLKPQLEKWLNDAESSP, -0.108 ± 0.055. Turning to SDLEELEKFAKTFKQRRIKLGFTQGDVGLAMGKLYGNDFSQTTISRFEALNLSFKNMCKLKPTLEKWLNDAESSP, the abundance fitness is -0.059 ± 0.053.

On to SDLEELEKFAKTFKQRRIKLGFTQGDVGLAMGKLYGNDFSQTTISRFEALNLSFKNMCKLKPMLEKWLNDAESSP, for which the abundance fitness is -0.027 ± 0.042. With SDLEELEKFAKTFKQRRIKLGFTQGDVGLAMGKLYGNDFSQTTISRFEALNLSFKNMCKLKPSLEKWLNDAESSP the figure was -0.055 ± 0.036. On to SDLEELEKFAKTFKQRRIKLGFTQGDVGLAMGKLYGNDFSQTTISRFEALNLSFKNMCKLKPYLEKWLNDAESSP, for which the abundance fitness is -0.173 ± 0.11. Consider SDLEELEKFAKTFKQRRIKLGFTQGDVGLAMGKLYGNDFSQTTISRFEALNLSFKNMCKLKPPLEKWLNDAESSP, for which the abundance fitness is -0.092 ± 0.047.

Consider SDLEELEKFAKTFKQRRIKLGFTQGDVGLAMGKLYGNDFSQTTISRFEALNLSFKNMCKLKPWLEKWLNDAESSP, for which the abundance fitness is -0.07 ± 0.037.

As to SDLEELEKFAKTFKQRRIKLGFTQGDVGLAMGKLYGNDFSQTTISRFEALNLSFKNMCKLKPALEKWLNDAESSP, the abundance fitness amounted to 0.024 ± 0.039. As to SDLEELEKFAKTFKQRRIKLGFTQGDVGLAMGKLYGNDFSQTTISRFEALNLSFKNMCKLKPNLEKWLNDAESSP, the abundance fitness is -0.026 ± 0.065. For the variant SDLEELEKFAKTFKQRRIKLGFTQGDVGLAMGKLYGNDFSQTTISRFEALNLSFKNMCKLKPFLEKWLNDAESSP, the abundance fitness was -0.221 ± 0.079. To SDLEELEKFAKTFKQRRIKLGFTQGDVGLAMGKLYGNDFSQTTISRFEALNLSFKNMCKLKPVLEKWLNDAESSP belongs -0.032 ± 0.032; to SDLEELEKFAKTFKQRRIKLGFTQGDVGLAMGKLYGNDFSQTTISRFEALNLSFKNMCKLKPCLEKWLNDAESSP, -0.031 ± 0.054. On to SDLEELEKFAKTFKQRRIKLGFTQGDVGLAMGKLYGNDFSQTTISRFEALNLSFKNMCKLKPHLEKWLNDAESSP, for which the abundance fitness is 0.011 ± 0.061.

Turning to SDLEELEKFAKTFKQRRIKLGFTQGDVGLAMGKLYGNDFSQTTISRFEALNLSFKNMCKLKHLLEKWLNDAESSP, the abundance fitness was -0.025 ± 0.12. As for SDLEELEKFAKTFKQRRIKLGFTQGDVGLAMGKLYGNDFSQTTISRFEALNLSFKNMCKLKKLLEKWLNDAESSP, the abundance fitness is -0.036 ± 0.047. With SDLEELEKFAKTFKQRRIKLGFTQGDVGLAMGKLYGNDFSQTTISRFEALNLSFKNMCKLKCLLEKWLNDAESSP the figure was -0.201 ± 0.062. With SDLEELEKFAKTFKQRRIKLGFTQGDVGLAMGKLYGNDFSQTTISRFEALNLSFKNMCKLKGLLEKWLNDAESSP the figure was -0.085 ± 0.031; with SDLEELEKFAKTFKQRRIKLGFTQGDVGLAMGKLYGNDFSQTTISRFEALNLSFKNMCKLKILLEKWLNDAESSP, -0.082 ± 0.097. As for SDLEELEKFAKTFKQRRIKLGFTQGDVGLAMGKLYGNDFSQTTISRFEALNLSFKNMCKLKVLLEKWLNDAESSP, the abundance fitness is -0.128 ± 0.036. In the case of SDLEELEKFAKTFKQRRIKLGFTQGDVGLAMGKLYGNDFSQTTISRFEALNLSFKNMCKLKQLLEKWLNDAESSP, the abundance fitness is -0.167 ± 0.054. Regarding SDLEELEKFAKTFKQRRIKLGFTQGDVGLAMGKLYGNDFSQTTISRFEALNLSFKNMCKLKELLEKWLNDAESSP, the abundance fitness is -0.118 ± 0.041.

As to SDLEELEKFAKTFKQRRIKLGFTQGDVGLAMGKLYGNDFSQTTISRFEALNLSFKNMCKLKYLLEKWLNDAESSP, the abundance fitness was -0.624 ± 0.24. For SDLEELEKFAKTFKQRRIKLGFTQGDVGLAMGKLYGNDFSQTTISRFEALNLSFKNMCKLKFLLEKWLNDAESSP, the abundance fitness was -0.191 ± 0.1. In the case of SDLEELEKFAKTFKQRRIKLGFTQGDVGLAMGKLYGNDFSQTTISRFEALNLSFKNMCKLKTLLEKWLNDAESSP, the abundance fitness is -0.163 ± 0.051. With SDLEELEKFAKTFKQRRIKLGFTQGDVGLAMGKLYGNDFSQTTISRFEALNLSFKNMCKLKRLLEKWLNDAESSP the figure was -0.149 ± 0.032. On to SDLEELEKFAKTFKQRRIKLGFTQGDVGLAMGKLYGNDFSQTTISRFEALNLSFKNMCKLKNLLEKWLNDAESSP, for which the abundance fitness is -0.24 ± 0.13. To SDLEELEKFAKTFKQRRIKLGFTQGDVGLAMGKLYGNDFSQTTISRFEALNLSFKNMCKLKALLEKWLNDAESSP belongs -0.16 ± 0.039; to SDLEELEKFAKTFKQRRIKLGFTQGDVGLAMGKLYGNDFSQTTISRFEALNLSFKNMCKLKWLLEKWLNDAESSP, -0.365 ± 0.04.
